In one test the target is purified Hsp90-Y313E (UniProt P07900).
A further test deals with purified wild type Hsp90 (UniProt P07900).

On to “purified AHA1 protein (from UniProt O95433 1-338) (natural protein)”, for which the Kd with purified Hsp90-Y313E amounted to 3.7 µM; with purified wild type Hsp90, 13 µM.

The values are drawn from article PMC3418412.
